The assay has as its target PD-1-mFc (人PD-1胞外区加Fc纯化标签) (human) (UniProt Q15116). Kind of assay: ELISA of the subclone's supernatant on plate-coated PD-1 antigen.
UniProt Q15116, sequence (Q15116 25-170): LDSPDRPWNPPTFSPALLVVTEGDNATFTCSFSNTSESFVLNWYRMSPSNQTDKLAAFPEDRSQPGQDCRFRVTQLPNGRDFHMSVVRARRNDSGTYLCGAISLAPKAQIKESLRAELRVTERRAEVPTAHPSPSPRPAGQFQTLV

B1: 抗PD-1鼠源单克隆抗体 (阳性克隆2G8-1N8) (antibody, V domains shown)
VH: EVKLVESGGGLVKPGGSLKLSCAASGFTFSSYGMSWVRQTPEKRLEWVATISGGGSYTYYPDSVKGRFTISRDNAKNNLYLQMSSLRSEDTALYYCASRFGEAWFAYWGQGTLVTVSA
VL: DIKMTQSPSSMYASLGERVTITCKASQDINSYLSWFQQKPGKSPKTLIYRANRLVDGVPSRFSGSGSGQDYSLTISSLEYEDMGIYYCLQYDEFPLTFGAGTKLELK
Molecule B1 came in with an OD值 of 1.02 OD.

For the origin of these results see CN110563849A.
